These results are taken from patent publication US20220098307A1 (WUHAN YZY BIOPHARMA, published 2022).

By EC50 is commonly meant the midpoint of the concentration-response curve.

B1: M3IC-FES (bispecific antibody)
fusion heavy: EVKLDETGGGLVQPGRPMKLSCVASGFTFSDYWMNWVRQSPEKGLEWVAQIRNKPYNYETYYSDSVKGRFTISRDDSKSSVYLQMNNLRVEDMGIYYCTGSYYGMDYWGQGTSVTVSSASTKGPSVFPLAPSSKSTSGGTAALGCLVKDYFPEPVTVSWNSGALTSGVHTFPAVLQSSGLYSLSSVVTVPSSSLGTQTYICNVNHKPSNTKVDKKVEPKSCGGGGSGGGGSQVQLVESGGGVVQPGRSLRLSCAASGFTFSTYAMNWVRQAPGKGLEWVARIRSKYNNYATYYADSVKDRFTISRDDSKNTLYLQMNSLRAEDTAVYYCARHGNFGNSYVSWFAYWGQGTLVTVSSASVAAPSVFIFPPSDEQLKSGTASVVCLLNNFYPREAKVQWKVDNALQSGNSQESVTEQDSKDSTYSLSSTLTLSKADYEKHKVYACEVTHQGLSSPVTKSFNRGECDKTHTCPPCPAPEFEGGPSVFLFPPKPKDTLMISRTPEVTCVVVDVSHEDPEVKFNWYVDGVEVHNAKTKPREEQYNSTYRVVSVLTVLHQDWLNGKEYKCKVSNKALPASIEKTISKAKGQPREPQVYTLPPCRDELTKNQVSLWCLVKGFYPSDIAVEWESNGQPENNYKTTPPVLDSDGSFFLYSKLTVDKSRWQQGNVFSCSVMHEALHNHYTQKSLSLSPGK
cross light: QTVVTQEPSLTVSPGGTVTLTCRSSTGAVTTSNYANWVQQKPGQAPRGLIGGTNKRAPGVPARFSGSLLGGKAALTLSGVQPEDEAEYYCALWYSNLWVFGGGTKVEIKSSASTKGPSVFPLAPSSKSTSGGTAALGCLVKDYFPEPVTVSWNSGALTSGVHTFPAVLQSSGLYSLSSVVTVPSSSLGTQTYICNVNHKPSNTKVDKKVEPKSC
heavy: EVKLDETGGGLVQPGRPMKLSCVASGFTFSDYWMNWVRQSPEKGLEWVAQIRNKPYNYETYYSDSVKGRFTISRDDSKSSVYLQMNNLRVEDMGIYYCTGSYYGMDYWGQGTSVTVSSASTKGPSVFPLAPSSKSTSGGTAALGCLVKDYFPEPVTVSWNSGALTSGVHTFPAVLQSSGLYSLSSVVTVPSSSLGTQTYICNVNHKPSNTKVDKKVEPKSCDKTHTCPPCPAPEFEGGPSVFLFPPKPKDTLMISRTPEVTCVVVDVSHEDPEVKFNWYVDGVEVHNAKTKPREEQYNSTYRVVSVLTVLHQDWLNGKEYKCKVSNKALPASIEKTISKAKGQPREPQVCTLPPSRDELTKNQVSLSCAVKGFYPSDIAVEWESNGQPENNYKTTPPVLDSDGSFFLVSKLTVDKSRWQQGNVFSCSVMHEALHNRFTQKSLSLSPGK
light: DVVMTQTPLSLPVSLGDQASISCRSSQSLVHSNGNTYLRWYLQKPGQSPKVLIYKVSNRFSGVPDRFSGSGSGTDFTLKISRVEAEDLGVYFCSQSTHVPWTFGGGTKLEIKRTVAAPSVFIFPPSDEQLKSGTASVVCLLNNFYPREAKVQWKVDNALQSGNSQESVTEQDSKDSTYSLSSTLTLSKADYEKHKVYACEVTHQGLSSPVTKSFNRGEC
notes: structure 3 isotype control; CH2 FES; copies: 1 + 1 + 1 + 2
B2: M3IC-NA (bispecific antibody)
fusion heavy: B1 fusion heavy with F477L, E478L, N540A, S574P
cross light: B1 cross light
heavy: B1 heavy with F235L, E236L, N298A, S332P
light: B1 light
notes: structure 3 isotype control; CH2 N297A; copies: 1 + 1 + 1 + 2
B3: CD38-M1-G2-2 (bispecific antibody, human IgG1, kappa)
chain: QVQLVESGGGVVQPGRSLRLSCAASGFTFSTYAMNWVRQAPGKGLEWVARIRSKYNNYATYYADSVKDRFTISRDDSKNTLYLQMNSLRAEDTAVYYCARHGNFGNSYVSWFAYWGQGTLVTVSSGGGGSGGGGSGGGGSQTVVTQEPSLTVSPGGTVTLTCRSSTGAVTTSNYANWVQQKPGQAPRGLIGGTNKRAPGVPARFSGSLLGGKAALTLSGVQPEDEAEYYCALWYSNLWVFGGGTKVEIKGRGRGSDKTHTCPPCPAPPVAGPSVFLFPPKPKDTLMISRTPEVTCVVVDVSHEDPEVQFNWYVDGVEVHNAKTKPREEQFNSTFRVVSVLTVVHQDWLNGKEYKCKVSNKGLPAPIEKTISKTKGQPREPQVCTLPPSRDELTKNQVSLSCAVKGFYPSDIAVEWESNGQPENNYKTTPPVLDSDGSFFLVSKLTVDKSRWQQGNVFSCSVMHEALHNHYTQKSLSLSPGK
heavy: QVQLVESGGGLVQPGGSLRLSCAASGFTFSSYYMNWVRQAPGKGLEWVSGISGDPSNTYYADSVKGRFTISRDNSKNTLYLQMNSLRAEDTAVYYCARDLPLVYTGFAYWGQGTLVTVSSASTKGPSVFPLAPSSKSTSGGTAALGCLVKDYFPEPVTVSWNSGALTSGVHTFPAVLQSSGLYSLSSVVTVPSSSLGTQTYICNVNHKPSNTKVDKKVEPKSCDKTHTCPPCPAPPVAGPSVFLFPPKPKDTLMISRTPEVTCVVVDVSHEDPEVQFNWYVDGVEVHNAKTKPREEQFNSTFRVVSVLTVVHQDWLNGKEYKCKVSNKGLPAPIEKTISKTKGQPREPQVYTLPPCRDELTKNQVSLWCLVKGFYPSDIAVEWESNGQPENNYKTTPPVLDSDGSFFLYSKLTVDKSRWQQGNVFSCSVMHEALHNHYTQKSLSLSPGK
light: DIELTQPPSVSVAPGQTARISCSGDNLRHYYVYWYQQKPGQAPVLVIYGDSKRPSGIPERFSGSNSGNTATLTISGTQAEDEADYYCQTYTGGASLVFGGGTKLTVLGQRTVAAPSVFIFPPSDEQLKSGTASVVCLLNNFYPREAKVQWKVDNALQSGNSQESVTEQDSKDSTYSLSSTLTLSKADYEKHKVYACEVTHQGLSSPVTKSFNRGEC
notes: structure 1; CD38 (MOR) x CD3; CH2 G2CH2
B4: CD38-M1-G2D-1 (bispecific antibody, human IgG1, kappa)
chain: B3 chain with D304A
heavy: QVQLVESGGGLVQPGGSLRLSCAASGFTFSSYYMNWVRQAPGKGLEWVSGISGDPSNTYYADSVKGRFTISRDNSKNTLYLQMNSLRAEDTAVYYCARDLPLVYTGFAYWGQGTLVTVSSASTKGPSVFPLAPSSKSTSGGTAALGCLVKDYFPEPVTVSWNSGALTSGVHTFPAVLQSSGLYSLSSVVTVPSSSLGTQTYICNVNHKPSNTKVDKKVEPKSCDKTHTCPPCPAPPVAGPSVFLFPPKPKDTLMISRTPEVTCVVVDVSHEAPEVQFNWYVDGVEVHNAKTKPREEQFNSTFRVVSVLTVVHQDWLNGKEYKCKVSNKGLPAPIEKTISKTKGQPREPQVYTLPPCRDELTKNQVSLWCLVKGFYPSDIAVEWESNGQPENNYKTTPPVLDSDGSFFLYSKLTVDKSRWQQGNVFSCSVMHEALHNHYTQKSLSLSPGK
light: B3 light
notes: structure 1; CD38 (MOR) x CD3; CH2 G2DCH2
B5: CD38-M1-SG2-2 (bispecific antibody, human IgG1, kappa)
chain: B3 chain with C264S
heavy: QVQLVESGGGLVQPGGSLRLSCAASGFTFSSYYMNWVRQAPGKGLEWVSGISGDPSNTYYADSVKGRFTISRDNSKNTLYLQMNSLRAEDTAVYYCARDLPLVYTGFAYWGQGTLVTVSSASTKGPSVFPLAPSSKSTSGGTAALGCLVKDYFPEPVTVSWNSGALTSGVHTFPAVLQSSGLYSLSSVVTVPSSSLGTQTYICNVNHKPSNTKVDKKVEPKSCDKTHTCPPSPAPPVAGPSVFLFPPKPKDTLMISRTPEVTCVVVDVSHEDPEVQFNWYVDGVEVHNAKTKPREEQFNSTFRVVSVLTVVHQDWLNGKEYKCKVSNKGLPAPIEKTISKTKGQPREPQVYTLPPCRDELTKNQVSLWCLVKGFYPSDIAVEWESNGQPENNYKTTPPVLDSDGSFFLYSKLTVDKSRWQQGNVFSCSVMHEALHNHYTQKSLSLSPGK
light: B3 light
notes: structure 1; CD38 (MOR) x CD3; CH2 SG2CH2
B6: CD38-M1-FES-3 (bispecific antibody)
chain: not shown
heavy: not shown
light: DIELTQPPSVSVAPGQTARISCSGDNLRHYYVYWYQQKPGQAPVLVIYGDSKRPSGIPERFSGSNSGNTATLTISGTQAEDEADYYCQTYTGGASLVFGGGTKLTVLGQGQPKAAPSVTLFPPSSEELQANKATLVCLISDFYPGAVTVAWKADSSPVKAGVETTTPSKQSNNKYAASSYLSLTPEQWKSHRSYSCQVTHEGSTVEKTVAPTECS
notes: structure 1; CD38 (MOR) x CD3 (I2C); CH2 FES; CL is Lc3

Changes are numbered by the printed parent chain. Numbers in names are those of the source.

The target of one assay is T1, Human CD3ε (human, UniProt P07766 23-126).
T1 construct: CD3 on T cells isolated from human whole blood
Kind of assay: flow cytometry, human T cells. The gist of the method:
(§1)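 For cell-surface binding, T cells served for the CD3 arm and antigen-positive tumor cells (e.g. MM.1S or RPMI 8226 for CD38) for the tumor arm.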
In turn, B1 had a concentration giving a half-maximal response (EC50) of 0.662 µM.

Molecule B2 displayed a concentration giving a half-maximal response (EC50) of 0.739 µM.

As for B3, the EC50 is 0.478 µM.

For the molecule B4, a half-maximal effect (EC50) was put at 0.405 µM.

On to B5, for which the 50% effective concentration (EC50) was found to be 0.437 µM.

In another assay the target is T2, Monkey CD3 (monkey).
T2 construct: whole, on cells; also called CD3 of monkey CD3 positive T cells
In words: flow cytometry, monkey T cells.
In turn, B6 returned a concentration for a half-maximal effect (EC50) of 0.034 µM.

Molecule B3 yielded an EC50 of 0.491 µM.

Molecule B4 registered a half-maximal effective concentration (EC50) of 0.42 µM.

B5 returned a concentration giving a half-maximal response (EC50) of 0.461 µM.

The target in the next assay is T2, Monkey CD3. In words: flow cytometry, monkey T cells. The source holds these as a separate data set. (In flow cytometry, cells or beads pass a laser one at a time.)
As for B1, a half-maximal response (EC50) required 0.671 µM.

B2 registered a half-maximal effective concentration (EC50) of 0.935 µM.

In a further assay the target is Human CD38 (human, UniProt P28907 43-300). Kind of assay: flow cytometry, MM.1S or RPMI 8226 cells. The source says:
1) Cell preparation: T cells isolated from CD3-positive human whole blood were used for a CD3 end affinity detection of multifunctional antibody molecule; positive tumor cells of corresponding antigen were used for detecting affinity of tumor antigen; for example, CD38-positive MM. 1S cells (purchased from the Cell Resource Center of Shanghai Institutes for Biological Sciences, Chinese Academy of Sciences) or RPMI 8226 cells (purchased from the Cell Resource Center of Shanghai Institutes for Biological Sciences, Chinese Academy of Sciences) were used for CD38 antigen detection, and PD-L1 positive H358 cells (purchased from the Cell Resource Center of Shanghai Institutes for Biological Sciences, Chinese Academy of Sciences) were used for PD-L1 antigen detection, and so on. The cells were resuspended with 1% FBS-PBS, adjusted to a density of 4×10⁶/ml, and 50 μl of cells were taken from each well, and then plated at 2×10⁵ per well. Cell plating was operated on ice
2) Addition of the antibody: according to the experimental design, the antibody was diluted gradually, and dilution of antibody was operated on ice. For example, the initial concentration of antibody for dilution was 3000 nM, and the antibody was diluted by 3 times with 11 concentration gradients. The diluted antibody was added to a cell well at 50 μl per well, mixed well, and shaked and incubated at 4° C. 1100 rpm/min for 2 h; after washing, the cells were resuspend in 1% FBS-PBS, and a diluted secondary antibody PE anti-human IgG FC (Biolegend, 409304) was added with a final concentration of 8 ug/ml and a volume of 50 μl/well. At the same time, a well only added with cells and secondary antibody was set as a control, the components were mixed well, and incubated under shaking at 1100 rpm/min at 4° C. for 1 h;
5) Data analysis: the data was analyzed by a flow analysis software FlowJo 7.6 thereby obtaining an average fluorescence intensity of the specific antibody concentration, plotted by a Graphpad Prism 5 with the antibody concentration (nM) as an abscissa and the average fluorescence intensity as an ordinate; the EC50 value was calculated by the method of One site—Specific binding, and the EC50 value indicated the cell affinity of the antibody to the corresponding target antigen.
The molecule B6 registered a half-maximal effective concentration (EC50) of 0.0111 µM.

In turn, B3 showed an EC50 of 0.104 µM.

In the case of B4, the EC50 stood at 0.1 µM.

In the case of B5, the EC50 was 0.106 µM.

Another assay deals with T3, human CEA (human, UniProt P06731 35-685).
T3 sequence: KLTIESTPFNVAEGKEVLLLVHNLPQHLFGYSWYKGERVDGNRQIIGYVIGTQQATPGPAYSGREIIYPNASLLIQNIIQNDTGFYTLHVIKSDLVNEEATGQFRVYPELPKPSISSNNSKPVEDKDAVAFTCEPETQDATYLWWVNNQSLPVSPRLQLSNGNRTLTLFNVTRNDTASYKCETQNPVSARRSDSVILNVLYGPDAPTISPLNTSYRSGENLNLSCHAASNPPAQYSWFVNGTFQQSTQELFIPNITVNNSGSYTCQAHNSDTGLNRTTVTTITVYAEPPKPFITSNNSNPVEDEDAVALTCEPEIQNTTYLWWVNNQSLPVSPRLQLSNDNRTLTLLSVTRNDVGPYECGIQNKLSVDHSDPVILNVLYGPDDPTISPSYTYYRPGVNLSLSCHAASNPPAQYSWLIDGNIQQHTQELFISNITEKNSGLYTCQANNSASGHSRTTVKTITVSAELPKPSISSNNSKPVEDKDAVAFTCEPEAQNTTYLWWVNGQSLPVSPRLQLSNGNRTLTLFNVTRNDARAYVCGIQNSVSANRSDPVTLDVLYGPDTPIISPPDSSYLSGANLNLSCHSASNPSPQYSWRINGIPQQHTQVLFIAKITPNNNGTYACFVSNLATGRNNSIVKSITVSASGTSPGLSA
Kind of assay: flow cytometry, human tumor cells (table of the CEA series). Put shortly:
as §1
B1: the binding result is recorded as “no binding”.

Consider B2, for which the binding result is reported as “no binding”.
